Data from patent US20060026702A1, “Phosphoinositide 3-kinase mediated inhibition of GPCRs” (DUKE UNIVERSITY, priority 2002, published 2006).

Legend:
βARK1 [1] = molecular target: T1, βARK1 (Bos taurus, UniProt P21146); test: Co-immunoprecipitation and GST pull-down with purified βARK1; assay type: binding; settings: immunoprecipitated FLAG-HEAT or PI3KΔHEAT-HA
T1 construct: gift from Dr. Robert Lefkowitz
T1 sequence (P21146 1-689): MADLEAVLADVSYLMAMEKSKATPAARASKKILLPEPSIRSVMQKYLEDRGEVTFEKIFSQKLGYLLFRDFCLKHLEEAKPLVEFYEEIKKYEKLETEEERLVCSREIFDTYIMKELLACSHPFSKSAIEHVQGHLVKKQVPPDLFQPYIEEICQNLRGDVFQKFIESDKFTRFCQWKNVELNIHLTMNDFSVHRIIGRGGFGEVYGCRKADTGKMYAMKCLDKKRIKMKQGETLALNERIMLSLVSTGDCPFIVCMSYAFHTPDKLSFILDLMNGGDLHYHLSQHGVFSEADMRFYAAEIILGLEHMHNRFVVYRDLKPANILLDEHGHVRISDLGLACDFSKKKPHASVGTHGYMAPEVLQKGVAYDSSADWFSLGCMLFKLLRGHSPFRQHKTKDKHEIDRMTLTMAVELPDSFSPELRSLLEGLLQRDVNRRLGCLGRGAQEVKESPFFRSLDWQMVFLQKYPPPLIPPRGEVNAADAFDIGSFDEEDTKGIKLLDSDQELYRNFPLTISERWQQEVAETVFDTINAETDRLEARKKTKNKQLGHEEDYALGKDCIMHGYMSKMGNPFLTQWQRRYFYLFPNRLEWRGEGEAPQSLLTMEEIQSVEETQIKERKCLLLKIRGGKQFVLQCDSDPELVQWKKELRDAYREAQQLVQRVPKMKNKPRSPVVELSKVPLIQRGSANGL
Experimental: GST Fusion Protein Expression and Pull-down Experiments—Plasmid DNAs were transformed in Escherichia coli BL21 cells. Overnight cultures were grown in LB medium supplemented with ampicillin (100 μg/ml), diluted to an A600 of 0.2 in the same medium and grown for another 1 hr at 37° C. Cultured cells were then induced with 0.1 mM isopropyl-1-thio-β-D-galactopyranoside for 2 hr. Cell were then pelleted, washed once with 1× phosphate-buffered saline and resuspended in 1× phosphate-buffered saline containing 1 mM phenylmethylsulfonyl fluoride, 2 mg/ml lysozyme and incubated for 15 min on ice. Cells were lysed by adding Triton X-100 1%. Solublized cells were incubated with DNase (300 units) for 15 min on ice and centrifuged at 13,000 rpm for 10 min.
Glutathione-Sepharose beads were added to the supernatant and gently agitated at 4° C. for 2 hr. Beads were washed three times with ice cold 1×PBS containing 1% Triton X-100 followed by three washes with cold PBS without detergent. Protein concentration was determined using a DC protein assay kit (Bio Rad), and the integrity of the fusion protein was analyzed by SDS-polyacrylamide gel electrophoresis and Coomassie staining.
The beads were spun and washed three times with binding buffer followed by three washes with binding buffer without detergent. The beads were resuspended in SDS gel loading buffer and resolved by gel electrophoresis, immunblotting and detection was carried out described later.
FLAG-HEAT and PI3KΔHEAT proteins were immunoprecipitated from cell extracts using monoclonal FLAG and HA antibodies respectively, fractionated by SDS-PAGE and analyzed by immunoblotting with βARK1 monoclonal antibody. […] Levels of expression of HEAT and PI3KΔHEAT proteins were similar (FIG. 8B, lower panel).
To investigate whether there was a direct physical interaction between the HEAT domain of PI3K and βARK1, GST-HEAT fusion protein containing 535-732 amino acid residues of PI3Kγ was produced, which including the entire HEAT domain and flanking upstream 10 amino acids and downstream 7 amino acids. […]

βARK1 [2] = test: βARK1 recruitment to the membrane (immunoblot of membrane fraction); assay type: cell-based; settings: 10 μM isoproterenol; HEAT 4 μg
Experimental: Cytosolic and Membrane Fractionation—Cell monolayers were scraped in 1 ml of buffer containing 25 mM Tris-HCl (pH 7.5), 5 mM EDTA, 5 mM EGTA, 1 mM phenylmethylsulfonyl fluoride, 2 μg/ml each of leupeptin and aprotinin and disrupted further by using Dounce homogenizer. Intact cells and nuclei were removed by-centrifugation at 1,000×g for 5 min. The collected supernatant was further subject to a centrifugation at 38,000×g for 25 min. The pellet was resuspended in lysis buffer (1% Nonidet P-40, 10% glycerol, 137 mM NaCl, 20 mM Tris-Cl (ph 7.4), 1 mM phenylmethylsulfonyl fluoride, 20 mM NaF, 1 mM sodium pyrophosphate, 1 mM sodium orthovanadate and 2 μg/ml each of aprotinin and leupeptin) and used as membrane fraction and the supernatant was diluted in lysis buffer and used as the cytosolic fraction. Heart samples also underwent through similar procedures to obtain membrane and cytosolic fractions. Purity of the membrane fraction preparation was confirmed by measuring enzyme activity of the membrane marker enzyme K^+-stimulated p-nitrophenylphosphatase (membrane fraction: 9.4 μmol/mg protein per min, cytosol: 2.6 μmol/mg of protein/min). […]
Cytosolic and membrane fractions were prepared and analyzed for βARK1 associated PI3K activity. […]

B1: HEAT: 197 amino acid HEAT domain of PI3Kγ, FLAG epitope-tagged (SEQ ID NO: 2), overexpressed in cells (protein, listed as Homo sapiens)
chain: MDYKDDDDKHPIALPKHQPTPDDRVRAEMPNQLRKQLEAIIATDTAEDKELLWHFRYESLKHPKAYPKLFSSVKWGQQEIVAKTYQLLARREVWDQSALDVGLTMQLLDCNFSDENVRAIAVQKLESLEDDDVLHYLLQLVQAVKFEPYHDSALARFLLKRGLRNKRIGHFLFWFLRSEIAQSRHYQQRFAVILEAYLRGCGTA
modifications: FLAG tag
- association with purified βARK1 (immune complexes from HEK 293 extracts) (βARK1 [1]): found to associate
- membrane recruitment of βARK1 following isoproterenol (βARK1 [2]): no effect
